# Reference: article PMC4466236, “A Novel AT-Rich DNA Recognition Mechanism for Bacterial Xenogeneic Silencer MvaT”
# T1: MvaT (Pseudomonas aeruginosa PAO1) (UniProt Q9HW86)
# T1 sequence: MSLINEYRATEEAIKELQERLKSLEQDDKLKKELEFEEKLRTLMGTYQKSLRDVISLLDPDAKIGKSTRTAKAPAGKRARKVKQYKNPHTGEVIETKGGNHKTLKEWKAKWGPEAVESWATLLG
# T2: MvaT full-length (Pseudomonas aeruginosa PAO1?) (UniProt Q9HW86)
# T2 sequence: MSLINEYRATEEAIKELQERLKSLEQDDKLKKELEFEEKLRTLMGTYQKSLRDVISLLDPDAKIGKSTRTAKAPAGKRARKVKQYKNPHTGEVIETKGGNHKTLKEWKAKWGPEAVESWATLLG
# T3: MvaTctd R80A (Pseudomonas aeruginosa PAO1, UniProt Q9HW86 77-124, R80A)
# T3 chain: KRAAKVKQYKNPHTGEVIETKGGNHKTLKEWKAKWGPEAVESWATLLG
# T4: MvaTctd K97A (Pseudomonas aeruginosa PAO1, UniProt Q9HW86 77-124, K97A)
# T4 chain: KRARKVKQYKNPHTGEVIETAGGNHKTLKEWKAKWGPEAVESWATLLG
# T5: MvaTctd K81A (Pseudomonas aeruginosa PAO1, UniProt Q9HW86 77-124, K81A)
# T5 chain: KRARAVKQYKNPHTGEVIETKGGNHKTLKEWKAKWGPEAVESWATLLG
# T6: MvaTctd WT (Pseudomonas aeruginosa PAO1, UniProt Q9HW86 77-124)
# T6 chain: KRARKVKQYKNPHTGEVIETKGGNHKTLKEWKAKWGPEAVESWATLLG
# T7: MvaTctd K108A (Pseudomonas aeruginosa PAO1, UniProt Q9HW86 77-124, K108A)
# T7 chain: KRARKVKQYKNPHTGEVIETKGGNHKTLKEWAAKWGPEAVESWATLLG
# T8: MvaTctd N100A (Pseudomonas aeruginosa PAO1, UniProt Q9HW86 77-124, N100A)
# T8 chain: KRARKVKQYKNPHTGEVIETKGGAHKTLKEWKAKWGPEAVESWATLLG
# T9: MvaTctd K105A (Pseudomonas aeruginosa PAO1, UniProt Q9HW86 77-124, K105A)
# T9 chain: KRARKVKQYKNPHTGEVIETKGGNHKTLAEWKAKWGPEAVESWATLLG
# T10: MvaTctd K102A (Pseudomonas aeruginosa PAO1, UniProt Q9HW86 77-124, K102A)
# T10 chain: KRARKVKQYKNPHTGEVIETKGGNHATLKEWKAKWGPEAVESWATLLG
# Columns and labels:
# [1] = target: T1, MvaT (Pseudomonas aeruginosa PAO1)
# [2] = target: T2, MvaT full-length (Pseudomonas aeruginosa PAO1?); assay: EMSA; details: EMSA: 8 mM Tris pH 8.0, 15 mM HEPES pH 7.9, 40 mM NaCl, 40 mM KCl, 1.4 mM EDTA, 0.5 mM DTT, 9.95% glycerol, room temp, NMR: 50 mM Na phosphate, 50 mM NaCl
# [3] = test system: MvaT full-length (Pseudomonas aeruginosa PAO1?); assay: EMSA; details: EMSA: 8 mM Tris pH 8.0, 15 mM HEPES pH 7.9, 40 mM NaCl, 40 mM KCl, 1.4 mM EDTA, 0.5 mM DTT, 9.95% glycerol, room temp, NMR: 50 mM Na phosphate, 50 mM NaCl
# [4] = test system: MvaT full-length (Pseudomonas aeruginosa PAO1?); assay: competition; details: EMSA: 8 mM Tris pH 8.0, 15 mM HEPES pH 7.9, 40 mM NaCl, 40 mM KCl, 1.4 mM EDTA, 0.5 mM DTT, 9.95% glycerol, room temp, NMR: 50 mM Na phosphate, 50 mM NaCl
# [5] = target: T3, MvaTctd R80A; assay: ITC; 283 K; EMSA: 8 mM Tris pH 8.0, 15 mM HEPES pH 7.9, 40 mM NaCl, 40 mM KCl, 1.4 mM EDTA, 0.5 mM DTT, 9.95% glycerol, room temp; NMR: 50 mM Na phosphate, 50 mM NaCl, pH 6.0, 298 K; ITC: 283 K, 0.15 mM DNA in cell, buffer not stated (protein purified in NMR buffer); details: protein: recombinant; tags: C-terminal His6; blunt, self-complementary
# [6] = target: T4, MvaTctd K97A; assay: NMR titration; similar to WT; EMSA: 8 mM Tris pH 8.0, 15 mM HEPES pH 7.9, 40 mM NaCl, 40 mM KCl, 1.4 mM EDTA, 0.5 mM DTT, 9.95% glycerol, room temp; NMR: 50 mM Na phosphate, 50 mM NaCl, pH 6.0, 298 K; ITC: 283 K, 0.15 mM DNA in cell, buffer not stated (protein purified in NMR buffer); details: protein: recombinant; tags: C-terminal His6; blunt, self-complementary
# [7] = target: T5, MvaTctd K81A; assay: as above; details: protein: recombinant; tags: C-terminal His6; blunt, self-complementary
# [8] = target: T6, MvaTctd WT; assay: ITC; 283 K; EMSA: 8 mM Tris pH 8.0, 15 mM HEPES pH 7.9, 40 mM NaCl, 40 mM KCl, 1.4 mM EDTA, 0.5 mM DTT, 9.95% glycerol, room temp; NMR: 50 mM Na phosphate, 50 mM NaCl, pH 6.0, 298 K; ITC: 283 K, 0.15 mM DNA in cell, buffer not stated (protein purified in NMR buffer); details: protein: recombinant; tags: C-terminal His6; blunt, self-complementary
# [9] = target: T7, MvaTctd K108A; assay: as above; details: protein: recombinant; tags: C-terminal His6; blunt, self-complementary
# [10] = target: T8, MvaTctd N100A; assay: as above; details: protein: recombinant; tags: C-terminal His6; blunt, self-complementary
# [11] = target: T9, MvaTctd K105A; assay: as above; details: protein: recombinant; tags: C-terminal His6; blunt, self-complementary
# [12] = target: T10, MvaTctd K102A; assay: ITC; 283 K; slightly lower affinity, Kd +70%; EMSA: 8 mM Tris pH 8.0, 15 mM HEPES pH 7.9, 40 mM NaCl, 40 mM KCl, 1.4 mM EDTA, 0.5 mM DTT, 9.95% glycerol, room temp; NMR: 50 mM Na phosphate, 50 mM NaCl, pH 6.0, 298 K; ITC: 283 K, 0.15 mM DNA in cell, buffer not stated (protein purified in NMR buffer); details: protein: recombinant; tags: C-terminal His6; blunt, self-complementary
Molecule,binding signal (PBM E-score (-0.5 to 0.5)) [1],further results
AAATATAT (double strand) [8-mer AAATATAT],0.482,–
AATATATA (double strand) [8-mer AATATATA],0.486,–
AATATATT (double strand) [8-mer AATATATT],0.485,–
AATATTAA (double strand) [8-mer AATATTAA],0.478,–
ATATAATA (double strand) [8-mer ATATAATA],0.484,–
ATATATAA (double strand) [8-mer ATATATAA],0.487,–
ATATATAT (double strand) [8-mer ATATATAT],0.491,–
ATATATTA (double strand) [8-mer ATATATTA],0.489,–
ATATTAAT (double strand) [8-mer ATATTAAT],0.484,–
CCGCAGGTGGCTGAACAGGCCGTGCGCTGGCTGGTCGAGCTGCAGGGCGGCGCCGACGACGAACGCCTGCGCCAGGCCTGGCAGCGCTGGCGCCAGGCGGCCCCGGAACACGAGCAGGCCTGGCGCCACATCGAGGCGGTCAACCAGCGCCTGGCCGGGATAGGCACGCCACTGGCCCTGGCCGCCATCAACGCACCGCATTCG (double strand) [PA3900 204 bp fragment],–,Kd [2]: 154 nM
PA3900 204 bp fragment,–,Kd ([3]; apparent Kd): 154 nM
"PA3900 204 bp fragment, unlabeled",–,binding (fold molar excess) [4]: > 200
TATATATA (double strand) [8-mer TATATATA],0.493,–
TATATTAA (double strand) [8-mer TATATTAA],0.482,–
TATTAATA (double strand) [8-mer TATTAATA],0.481,–
TATTATAA (double strand) [8-mer TATTATAA],0.48,–
TTAATTAA (double strand) [8-mer TTAATTAA],0.481,–
TTATATAA (double strand) [8-mer TTATATAA],0.483,–
cupA1 promoter 340 bp,–,Kd [3]: 57 nM
3AT (dsDNA) DNA 1: CGCATATATGCG DNA 2: CGCATATATGCG,–,binding signal [5]: > 10 fold Kd increase vs WT; binding result [6]: binds; binding result [7]: binds; Kd [8]: ~10700 nM; binding signal [9]: > 10 fold Kd increase vs WT; binding signal [10]: > 3 fold Kd increase vs WT; binding signal [11]: > 3 fold Kd increase vs WT; binding signal [12]: ~1.7 fold Kd increase vs WT
GC-rich d(CGCGCGCG)2 (dsDNA) DNA 1: CGCGCGCG DNA 2: CGCGCGCG,–,Kd [8]: ~360000 nM
